“And” between values parts separate entries of the source, which are not always exact repeats. Equal values may be shown once.

This test has as its target 猪伪狂犬病毒gE蛋白 (on inactivated pseudorabies virus) (pseudorabies virus (PRV)).

B1: 抗猪伪狂犬病毒gE蛋白单克隆抗体 (antibody, V domains shown)
VH: EVQLQESAHELVKPGASVKIPCKASGYTFTDYNMHWVKQSLRKSLEWIGDIHPNNGGTIYNQKCMGKATLTVDKSSSTADMELRSLTSDDTAVYSCAREGIHCYGSCYVRYDLDYCRQGTTLTVSS
VL: DTVLTQSSASLAVSLCQRATISCKASQSVDHDGDSYMNWSQQRPSQSSTLLIYAASNLESGIPARFSCSGSRTDFTLNIHPVEEEDAATYYCQQT
Regarding B1, the OD450nm was 2.59 OD450nm and 2.57 OD450nm and 2.62 OD450nm.
